Source: the supplement of paper PMC10065799, “High-throughput profiling of sequence recognition by tyrosine kinases and SH2 domains using bacterial peptide display” (eLife, 2023)

Tests used:
EPHB1 = EPHB1 (UniProt P54762); test: phosphorylation enrichment, bacterial display (enrichment ratio); higher = better substrate or ligand; peptides without Tyr show the background
Fes = Fes (UniProt P07332); test: as above
FGFR3 = FGFR3 (UniProt P22607); test: as above
c-Src = test: as above
Fyn = Fyn (UniProt P06241); test: as above
c-Abl (mouse) = test: as above
Hck = Hck (UniProt P08631); test: as above
MERTK = MERTK (UniProt Q12866); test: as above
AncSZ = test: as above
EPHB2 = EPHB2 (UniProt P29323); test: as above
Fer (mouse) = test: as above
FGFR1 = FGFR1 (UniProt P11362); test: as above
Jak2 = Jak2 (UniProt O60674); test: as above
Grb2 SH2 = Grb2 SH2 (UniProt P62993); test: SH2 binding enrichment of the phosphorylated peptide, bacterial display (enrichment ratio); higher = better substrate or ligand; peptides without Tyr show the background
SHP2-C SH2 = test: as above
c-Src SH2 = test: as above
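Throughout, for SH2 binding enrichment of the phosphorylated peptide, bacterial display: peptide library displayed on the E. coli surface as eCPX fusions, selected cells deep-sequenced, score is each peptide's frequency after selection divided by its frequency in the input.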
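Throughout, for phosphorylation enrichment, bacterial display: 11-residue human phosphosite peptides and single-mutation variants displayed on the E. coli surface, counted by deep sequencing, each peptide's frequency after selection divided by its frequency in the unselected input library; frequency after pTyr selection over input frequency; kinase dosed for 20-30% of maximal phosphorylation in three min.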

Sequence of FGFR3 (P22607 whole entry, looked up): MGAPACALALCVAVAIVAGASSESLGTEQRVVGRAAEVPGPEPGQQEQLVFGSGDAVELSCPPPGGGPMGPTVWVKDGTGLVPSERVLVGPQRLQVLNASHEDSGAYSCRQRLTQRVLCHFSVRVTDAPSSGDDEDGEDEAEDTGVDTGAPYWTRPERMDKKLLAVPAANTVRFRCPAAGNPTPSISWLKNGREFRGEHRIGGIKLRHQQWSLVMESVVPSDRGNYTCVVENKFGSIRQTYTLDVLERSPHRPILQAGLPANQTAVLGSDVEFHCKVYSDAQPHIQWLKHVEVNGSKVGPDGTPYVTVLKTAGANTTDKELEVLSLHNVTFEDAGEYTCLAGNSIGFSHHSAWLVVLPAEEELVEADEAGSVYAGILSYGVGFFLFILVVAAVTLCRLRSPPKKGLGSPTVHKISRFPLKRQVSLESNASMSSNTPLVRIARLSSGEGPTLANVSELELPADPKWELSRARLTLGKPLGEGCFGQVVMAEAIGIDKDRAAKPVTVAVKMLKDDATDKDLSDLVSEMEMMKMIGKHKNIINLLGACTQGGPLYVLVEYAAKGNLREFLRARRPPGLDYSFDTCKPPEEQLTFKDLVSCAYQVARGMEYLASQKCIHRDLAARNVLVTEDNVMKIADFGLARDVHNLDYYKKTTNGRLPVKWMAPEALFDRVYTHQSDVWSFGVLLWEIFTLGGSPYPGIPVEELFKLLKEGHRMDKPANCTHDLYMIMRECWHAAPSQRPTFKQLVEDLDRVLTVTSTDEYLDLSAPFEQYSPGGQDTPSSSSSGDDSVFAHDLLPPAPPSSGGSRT
Sequence of Fyn (P06241 whole entry, looked up): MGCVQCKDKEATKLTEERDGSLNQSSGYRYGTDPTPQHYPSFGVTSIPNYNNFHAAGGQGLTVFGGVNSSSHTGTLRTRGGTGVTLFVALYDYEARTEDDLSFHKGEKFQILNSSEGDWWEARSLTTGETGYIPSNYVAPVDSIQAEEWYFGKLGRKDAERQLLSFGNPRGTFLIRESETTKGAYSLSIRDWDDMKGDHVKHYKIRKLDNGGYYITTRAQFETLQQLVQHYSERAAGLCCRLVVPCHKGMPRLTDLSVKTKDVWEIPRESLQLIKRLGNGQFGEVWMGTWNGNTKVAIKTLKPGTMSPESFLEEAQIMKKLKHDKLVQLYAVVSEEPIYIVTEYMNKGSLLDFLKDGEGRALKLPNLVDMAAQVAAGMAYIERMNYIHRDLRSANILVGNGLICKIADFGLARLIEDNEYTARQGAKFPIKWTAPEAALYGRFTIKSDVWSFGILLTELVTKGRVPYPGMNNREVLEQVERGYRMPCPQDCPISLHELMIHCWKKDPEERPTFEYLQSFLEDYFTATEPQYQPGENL
Sequence of MERTK (Q12866 whole entry, looked up): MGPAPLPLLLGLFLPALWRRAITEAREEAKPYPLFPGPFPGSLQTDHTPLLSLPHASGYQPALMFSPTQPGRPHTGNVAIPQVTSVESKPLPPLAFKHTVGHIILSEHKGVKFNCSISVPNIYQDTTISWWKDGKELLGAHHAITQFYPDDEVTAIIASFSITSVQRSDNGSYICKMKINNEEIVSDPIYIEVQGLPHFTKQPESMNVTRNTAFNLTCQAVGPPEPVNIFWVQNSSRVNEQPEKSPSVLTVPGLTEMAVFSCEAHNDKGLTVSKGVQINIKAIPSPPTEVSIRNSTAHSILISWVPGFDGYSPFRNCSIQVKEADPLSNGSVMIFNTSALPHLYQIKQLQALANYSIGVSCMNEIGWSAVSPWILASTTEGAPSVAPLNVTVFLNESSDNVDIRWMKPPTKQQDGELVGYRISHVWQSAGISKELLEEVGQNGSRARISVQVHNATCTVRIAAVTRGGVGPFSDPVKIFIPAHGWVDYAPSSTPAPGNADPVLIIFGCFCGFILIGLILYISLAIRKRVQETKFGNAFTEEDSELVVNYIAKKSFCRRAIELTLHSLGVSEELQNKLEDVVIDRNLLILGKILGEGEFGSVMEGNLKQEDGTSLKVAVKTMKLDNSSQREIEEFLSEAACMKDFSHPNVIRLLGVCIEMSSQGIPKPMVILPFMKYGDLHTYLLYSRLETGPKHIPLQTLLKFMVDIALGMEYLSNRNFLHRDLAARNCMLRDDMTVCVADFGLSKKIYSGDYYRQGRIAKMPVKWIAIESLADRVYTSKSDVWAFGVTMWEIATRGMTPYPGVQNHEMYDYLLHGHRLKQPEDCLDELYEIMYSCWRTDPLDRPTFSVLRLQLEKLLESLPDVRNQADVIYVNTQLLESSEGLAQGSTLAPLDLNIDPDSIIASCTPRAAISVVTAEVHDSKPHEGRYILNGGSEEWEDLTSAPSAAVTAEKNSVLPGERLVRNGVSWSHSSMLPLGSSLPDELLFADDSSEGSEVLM
Sequence of Fes (P07332 whole entry, looked up): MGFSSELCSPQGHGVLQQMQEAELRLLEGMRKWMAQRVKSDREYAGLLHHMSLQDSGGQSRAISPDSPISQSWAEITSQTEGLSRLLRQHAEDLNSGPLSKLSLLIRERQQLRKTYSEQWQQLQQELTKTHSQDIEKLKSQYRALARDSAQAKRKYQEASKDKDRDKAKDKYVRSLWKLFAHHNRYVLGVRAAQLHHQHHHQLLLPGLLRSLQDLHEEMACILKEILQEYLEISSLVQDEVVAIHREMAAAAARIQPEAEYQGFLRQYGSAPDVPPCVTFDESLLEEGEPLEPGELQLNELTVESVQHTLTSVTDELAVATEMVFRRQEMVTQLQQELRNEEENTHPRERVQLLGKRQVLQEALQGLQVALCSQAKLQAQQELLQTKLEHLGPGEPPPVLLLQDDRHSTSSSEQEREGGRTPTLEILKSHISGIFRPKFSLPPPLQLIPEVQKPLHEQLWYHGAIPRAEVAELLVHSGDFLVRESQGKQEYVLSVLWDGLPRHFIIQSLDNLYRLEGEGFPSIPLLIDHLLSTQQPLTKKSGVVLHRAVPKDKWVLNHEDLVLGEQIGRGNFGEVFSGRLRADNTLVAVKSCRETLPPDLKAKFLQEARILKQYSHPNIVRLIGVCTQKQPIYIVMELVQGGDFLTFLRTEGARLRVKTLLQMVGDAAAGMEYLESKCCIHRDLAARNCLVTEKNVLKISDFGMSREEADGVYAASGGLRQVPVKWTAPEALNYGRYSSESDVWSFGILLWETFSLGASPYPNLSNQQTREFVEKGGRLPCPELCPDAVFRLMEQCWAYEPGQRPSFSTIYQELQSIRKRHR
Sequence of EPHB2 (P29323 whole entry, looked up): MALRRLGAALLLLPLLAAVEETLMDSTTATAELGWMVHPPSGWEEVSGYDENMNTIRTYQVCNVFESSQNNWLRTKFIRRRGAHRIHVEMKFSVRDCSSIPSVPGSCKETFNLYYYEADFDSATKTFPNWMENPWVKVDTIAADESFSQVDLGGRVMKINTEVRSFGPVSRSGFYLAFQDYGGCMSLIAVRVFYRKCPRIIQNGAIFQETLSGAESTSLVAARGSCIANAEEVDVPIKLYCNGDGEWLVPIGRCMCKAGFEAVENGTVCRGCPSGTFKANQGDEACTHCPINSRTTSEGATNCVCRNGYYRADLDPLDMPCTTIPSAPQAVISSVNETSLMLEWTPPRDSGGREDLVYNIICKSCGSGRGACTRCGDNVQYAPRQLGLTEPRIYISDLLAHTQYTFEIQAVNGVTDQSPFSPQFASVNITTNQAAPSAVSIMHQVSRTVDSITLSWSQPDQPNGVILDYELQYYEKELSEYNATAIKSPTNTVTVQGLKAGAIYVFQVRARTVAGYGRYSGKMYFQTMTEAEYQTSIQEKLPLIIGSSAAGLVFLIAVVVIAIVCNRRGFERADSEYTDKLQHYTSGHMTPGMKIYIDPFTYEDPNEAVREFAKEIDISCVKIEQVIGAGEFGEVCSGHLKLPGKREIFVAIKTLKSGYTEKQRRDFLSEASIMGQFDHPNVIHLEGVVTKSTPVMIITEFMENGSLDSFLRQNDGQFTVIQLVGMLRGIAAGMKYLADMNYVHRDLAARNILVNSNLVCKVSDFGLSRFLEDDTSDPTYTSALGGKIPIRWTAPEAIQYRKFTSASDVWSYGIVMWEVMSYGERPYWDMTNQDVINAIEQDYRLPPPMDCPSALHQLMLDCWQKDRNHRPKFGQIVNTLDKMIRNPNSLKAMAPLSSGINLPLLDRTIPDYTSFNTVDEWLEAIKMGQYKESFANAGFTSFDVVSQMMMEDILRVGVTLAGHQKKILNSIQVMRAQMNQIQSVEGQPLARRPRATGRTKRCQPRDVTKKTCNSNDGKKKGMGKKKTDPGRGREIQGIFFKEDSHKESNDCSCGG
Sequence of Hck (P08631 whole entry, looked up): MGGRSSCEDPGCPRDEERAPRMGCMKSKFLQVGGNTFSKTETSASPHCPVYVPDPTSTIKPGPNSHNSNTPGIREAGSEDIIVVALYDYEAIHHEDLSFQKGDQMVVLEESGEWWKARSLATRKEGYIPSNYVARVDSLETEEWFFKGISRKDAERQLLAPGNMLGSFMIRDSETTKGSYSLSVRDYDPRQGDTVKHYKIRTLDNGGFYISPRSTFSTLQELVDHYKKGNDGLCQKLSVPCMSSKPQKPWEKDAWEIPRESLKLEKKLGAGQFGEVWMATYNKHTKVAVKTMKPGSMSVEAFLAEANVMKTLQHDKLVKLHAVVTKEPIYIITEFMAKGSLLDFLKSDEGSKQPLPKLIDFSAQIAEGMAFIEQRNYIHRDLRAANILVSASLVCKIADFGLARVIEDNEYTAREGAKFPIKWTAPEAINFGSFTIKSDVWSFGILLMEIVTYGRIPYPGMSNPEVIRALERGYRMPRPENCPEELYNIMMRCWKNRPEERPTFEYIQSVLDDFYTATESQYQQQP

| SH2 binding enrichment (Grb2 SH2) | SH2 binding enrichment (SHP2-C SH2) | SH2 binding enrichment (c-Src SH2) | Sequence | phosphorylation enrichment (EPHB1) | phosphorylation enrichment (Fes) | phosphorylation enrichment (FGFR3) | phosphorylation enrichment (c-Src) | phosphorylation enrichment (Fyn) | phosphorylation enrichment (c-Abl (mouse)) | phosphorylation enrichment (Hck) | phosphorylation enrichment (MERTK) | phosphorylation enrichment (AncSZ) | phosphorylation enrichment (EPHB2) | phosphorylation enrichment (Fer (mouse)) | phosphorylation enrichment (FGFR1) | phosphorylation enrichment (Jak2) |
| --- | --- | --- | --- | --- | --- | --- | --- | --- | --- | --- | --- | --- | --- | --- | --- | --- |
| 0.832 | 0.794 | 0.534 | RGFRQYAFDGK [HLA-A_Y140_D140Y_YF] | 0.715 | 0.66 | 0.779 | 0.653 | 0.546 | 0.595 | 0.711 | 0.584 | 0.77 | 0.51 | 0.425 | 0.557 | 0.381 |
| 0.991 | 0.991 | 2.71 | RHFSSYSQMEN [PKP1_Y120_R116H] | 0.632 | 1 | 0.688 | 0.414 | 0.551 | 0.413 | 0.551 | 0.562 | 1.02 | 0.768 | 0.603 | 0.776 | 0.545 |
| 0.791 | 0.914 | 0.604 | RHSGSYLVTSV [APC_Y2838] | 0.505 | 0.863 | 0.451 | 0.463 | 0.431 | 0.611 | 0.616 | 0.682 | 0.759 | 0.559 | 0.51 | 0.438 | 0.963 |
| 0.525 | 0.474 | 0.802 | RILENYGADID [DNAH5_Y596_L591R] | 0.717 | 1.06 | 0.695 | 0.56 | 0.726 | 0.951 | 0.494 | 0.51 | 1.17 | 0.719 | 0.403 | 0.765 | 1.14 |
| 0.666 | 0.438 | 0.482 | RIRRRYCQVLN [IQCF1_Y144] | 0.784 | 1.11 | 0.703 | 0.575 | 0.583 | 0.455 | 0.826 | 0.609 | 0.673 | 0.592 | 0.835 | 0.708 | 0.614 |
| 0.756 | 0.58 | 0.325 | RIVEIYTRRLQ [GCH1_Y175_S176T] | 0.503 | 0.949 | 0.632 | 1.01 | 0.543 | 0.517 | 0.613 | 0.605 | 0.936 | 0.462 | 0.436 | 0.515 | 0.637 |
| 1.32 | 1.02 | 0.721 | RKKEEYKMAPY [F8_Y1990_L1994P] | 0.583 | 1.33 | 0.941 | 0.816 | 0.939 | 1.03 | 1.06 | 0.933 | 1.16 | 0.865 | 0.926 | 1.18 | 1.1 |
| 0.733 | 0.628 | 0.338 | RKKLFYKADGE [SERPINC1_Y272_E269K] | 0.34 | 0.648 | 0.473 | 0.778 | 0.621 | 0.894 | 0.657 | 0.531 | 0.624 | 0.579 | 0.587 | 0.528 | 0.732 |
| 1.29 | 0.576 | 3.25 | RKQQLYTAMEE [CCDC39_Y593] | 0.707 | 0.963 | 0.757 | 0.583 | 0.529 | 0.677 | 0.855 | 2.02 | 0.933 | 0.534 | 0.672 | 0.431 | 0.836 |
| 1.35 | 0.814 | 1.61 | RLCQDYDTIGP [ANK1_Y1073] | 2.96 | 1.44 | 0.976 | 0.971 | 0.838 | 0.964 | 1.61 | 0.602 | 1.88 | 3.94 | 1.05 | 0.541 | 0.778 |
| 0.897 | 0.915 | 0.594 | RLDPVYFVAPA [LAMC2_Y250] | 5.28 | 0.787 | 5.76 | 7.69 | 11.5 | 1.82 | 8.92 | 5.95 | 1.46 | 4.85 | 0.523 | 6.89 | 1.73 |
| 0.811 | 0.698 | 0.511 | RLKAKYAAATG [GLI3_Y933] | 0.421 | 0.611 | 0.395 | 0.529 | 0.379 | 0.601 | 0.464 | 0.414 | 0.64 | 0.526 | 0.486 | 0.36 | 0.692 |
| 1.48 | 1.25 | 1.48 | RLKAKYPAATG [GLI3_Y933_A934P] | 0.708 | 0.969 | 0.941 | 0.818 | 0.755 | 1.14 | 0.787 | 0.639 | 0.713 | 0.697 | 0.604 | 0.716 | 0.905 |
| 1.11 | 1.09 | 0.825 | RLLRGYNQSAY [HLA-C_Y137_D138N] | 0.538 | 0.412 | 0.499 | 0.267 | 0.41 | 0.36 | 0.507 | 0.275 | 0.44 | 0.454 | 0.321 | 0.386 | 0.307 |
| 1.05 | 0.818 | 0.711 | RLNCIYFKDQT [RS1_Y165_W163C_YF] | 0.827 | 1.32 | 0.599 | 1.08 | 0.59 | 1.05 | 0.77 | 0.871 | 1.16 | 0.732 | 0.56 | 0.683 | 1.3 |
| 0.76 | 0.636 | 0.471 | RLPINYTTRRI [LAMA2_Y2894_G2889R] | 0.433 | 0.602 | 0.839 | 0.626 | 0.35 | 0.638 | 0.534 | 0.663 | 0.873 | 0.519 | 0.289 | 0.743 | 0.547 |
